T1: NaLigF1 (Novosphingobium aromaticivorans, UniProt Q2G6J3)
T1 construct: gene Saro_2091; recombinant, purified as described previously
T1 sequence (Q2G6J3 11-257 limits assumed): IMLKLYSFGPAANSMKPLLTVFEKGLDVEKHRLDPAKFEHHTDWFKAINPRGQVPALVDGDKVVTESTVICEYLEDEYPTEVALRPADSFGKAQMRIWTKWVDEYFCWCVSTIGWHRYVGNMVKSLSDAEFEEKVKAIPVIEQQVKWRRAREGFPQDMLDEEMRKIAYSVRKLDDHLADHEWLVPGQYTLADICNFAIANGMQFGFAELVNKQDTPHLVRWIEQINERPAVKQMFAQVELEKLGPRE

T2: NaLigE (Novosphingobium aromaticivorans, UniProt Q2G5N2)
T2 construct: gene Saro_2405; recombinant from E. coli; N-terminal His8 tag cut by TEV (SAIAG- left); homodimer
T2 sequence (Q2G5N2 1-279): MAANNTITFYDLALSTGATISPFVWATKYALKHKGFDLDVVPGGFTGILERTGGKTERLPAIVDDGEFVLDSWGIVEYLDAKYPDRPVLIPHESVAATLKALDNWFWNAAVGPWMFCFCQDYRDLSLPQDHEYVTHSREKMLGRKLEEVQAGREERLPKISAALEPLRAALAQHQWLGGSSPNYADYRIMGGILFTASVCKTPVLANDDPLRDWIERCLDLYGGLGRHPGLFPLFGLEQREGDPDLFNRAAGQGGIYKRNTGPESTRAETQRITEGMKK


Tests used:
NaLigF1 = target: T1, NaLigF1; assay: HPLC end-point conversion of MPHPV; format: biochemical; details: β(S)-MPHPV left after BaeA+BaeB reaction on racemic MPHPV; GSH, 25 mM Tris-HCl pH 8.0, 25 mM NaCl, 30 °C
NaLigE = target: T2, NaLigE; assay: initial rate of GS-HPV formation by HPLC, Michaelis-Menten fit; format: biochemical; details: racemic MPHPV added, concentration counted as β(R); 5 mM GSH, 25 mM Tris-HCl pH 8.0, 25 mM NaCl, 25 °C; per subunit of the homodimer
Description: initial rate of GS-HPV formation by HPLC, Michaelis-Menten fit on NaLigE

[1] = substrate: COc1cc(C(=O)[C@@H](CO)Oc2ccccc2OC)ccc1O; assay: as above; format: biochemical, Novosphingobium aromaticivorans; details: racemic MPHPV added, concentration counted as β(R), 5 mM GSH, 25 mM Tris-HCl pH 8.0, 25 mM NaCl, 25 °C, per heterodimer
Description: initial rate of GS-HPV formation by HPLC, Michaelis-Menten fit on BaeAB

Molecule	HPLC end-point conversion of MPHPV (NaLigF1)	Km (NaLigE) [µM]	Km [1] [µM]	kcat [1] [s⁻¹]	kcat/Km [1] [M⁻¹ s⁻¹]
COc1cc(C(=O)[C@H](CO)Oc2ccccc2OC)ccc1O [β(S)-MPHPV]	upon the addition of NaLigF1, the MPHPV was completely converted into GS-HPV and guaiacol				
COc1cc(C(=O)[C@@H](CO)Oc2ccccc2OC)ccc1O [β(R)-MPHPV]		7 ± 1			
BaeAB (Novosphingobium aromaticivorans DSM 12444) (protein, co-expressed in E. coli B834, His8 tag on BaeB cut by TEV leaving SAIAG- linked to Ser2 (Met1 not coded); heterodimer, ~59 kDa by GPC; with Glutathione S-transferase-like protein (beta-etherase subunit BaeB)) MDEVSLYHWEPNANSGKPMLALMEKGVPFSSHYIDMLQFDQHKPEYLAINPQGTIPAMTHNGQVLTESTAIMEYVNDRFDGPDLMPADAQDRWRVRWWMKFMDQWLGPSFSMIGWSVFVGPMVRQRDPAELAAAIDRIPLPERRTAWRKAINGDFSESEMAESRRRVGLGIAKLEEELGKRPYVGSNQYSLADINIFNSTYSLPISQPDLAGKDRTPNIMRWLKRVYTREAVKKTWAMGKTDLAHRYGLIMAEIEG			20 ± 3	2.9 ± 0.3	150000 ± 30000
BaeAB (Novosphingobium aromaticivorans DSM 12444; S15A) (protein, co-expressed in E. coli B834, His8 tag on BaeB cut by TEV leaving SAIAG- linked to Ser2 (Met1 not coded); heterodimer, ~59 kDa by GPC; with Glutathione S-transferase-like protein (beta-etherase subunit BaeB)) MDEVSLYHWEPNANAGKPMLALMEKGVPFSSHYIDMLQFDQHKPEYLAINPQGTIPAMTHNGQVLTESTAIMEYVNDRFDGPDLMPADAQDRWRVRWWMKFMDQWLGPSFSMIGWSVFVGPMVRQRDPAELAAAIDRIPLPERRTAWRKAINGDFSESEMAESRRRVGLGIAKLEEELGKRPYVGSNQYSLADINIFNSTYSLPISQPDLAGKDRTPNIMRWLKRVYTREAVKKTWAMGKTDLAHRYGLIMAEIEG			100 ± 20	2.4 ± 0.3	23000 ± 6000
BaeAB (Novosphingobium aromaticivorans DSM 12444; N14A) (protein, co-expressed in E. coli B834, His8 tag on BaeB cut by TEV leaving SAIAG- linked to Ser2 (Met1 not coded); heterodimer, ~59 kDa by GPC; with Glutathione S-transferase-like protein (beta-etherase subunit BaeB)) MDEVSLYHWEPNAASGKPMLALMEKGVPFSSHYIDMLQFDQHKPEYLAINPQGTIPAMTHNGQVLTESTAIMEYVNDRFDGPDLMPADAQDRWRVRWWMKFMDQWLGPSFSMIGWSVFVGPMVRQRDPAELAAAIDRIPLPERRTAWRKAINGDFSESEMAESRRRVGLGIAKLEEELGKRPYVGSNQYSLADINIFNSTYSLPISQPDLAGKDRTPNIMRWLKRVYTREAVKKTWAMGKTDLAHRYGLIMAEIEG			250 ± 60	0.14 ± 0.02	500 ± 200

From PMC6369299, “A heterodimeric glutathione S-transferase that stereospecifically breaks lignin's β(R)-aryl ether bond reveals the diversity of bacterial β-etherases” (The Journal of Biological Chemistry, 2018)
